Key:
continuous 1H NMR assay = substrate: O=P(O)(O)OC[C@H]1O[C@H](O[C@H]2O[C@H](CO)[C@@H](O)[C@H](O)[C@H]2O)[C@H](O)[C@@H](O)[C@@H]1O; test: continuous 1H NMR assay; type: biochemical, Escherichia coli; conditions: 37 °C
Source text: continuous 1H NMR assay on OtsB

[1] = substrate: O=P(O)(O)OC[C@H]1O[C@H](O[C@H]2O[C@H](CO)[C@@H](O)[C@H](O)[C@H]2O)[C@H](O)[C@@H](O)[C@@H]1O; test: table note: endpoint HPLC; Methods: malachite green assay; type: biochemical, Escherichia coli; conditions: method note of the table (HPLC, fixed Glc, 70 °C) does not fit this enzyme
Source text: table note: endpoint HPLC; Methods: malachite green assay on OtsB^Sf

B1: OtsB (Escherichia coli K-12) (protein)
chain: MTEPLTETPELSAKYAWFFDLDGTLAEIKPHPDQVVVPDNILQGLQLLATASDGALALISGRSMVELDALAKPYRFPLAGVHGAERRDINGKTHIVHLPDAIARDISVQLHTVIAQYPGAELEAKGMAFALHYRQAPQHEDALMTLAQRITQIWPQMALQQGKCVVEIKPRGTSKGEAIAAFMQEAPFIGRTPVFLGDDLTDESGFAVVNRLGGMSVKIGTGATQASWRLAGVPDVWSWLEMITTALQQKRENNRSDDYESFSRSI
notes: expressed in E. coli
Km (continuous 1H NMR assay): 3.6 ± 0.8 mM
kcat (continuous 1H NMR assay): 286 ± 34 s⁻¹
kcat/Km (continuous 1H NMR assay): 79000 M⁻¹ s⁻¹

B2: OtsB^Sf (Escherichia coli K-12) (protein)
chain: B1 chain
notes: purified on Ni-NTA
Km [1]: 2.8 ± 0.7 mM
kcat [1]: 740 ± 96 s⁻¹
kcat/Km [1]: 264000 M⁻¹ s⁻¹

Source: paper doi:10.1101/2023.04.03.535218, “Distributable, Metabolic PET Reporting of Tuberculosis” (bioRxiv, 2023)
